Data on 55 molecules can be found in PMC12416549 (2024).

Substitutions are numbered along the chain they refer to. Numbers in names are those of the source.

The target in this test is T1, TNFR1 (Homo sapiens, UniProt P19438).
T1 chain: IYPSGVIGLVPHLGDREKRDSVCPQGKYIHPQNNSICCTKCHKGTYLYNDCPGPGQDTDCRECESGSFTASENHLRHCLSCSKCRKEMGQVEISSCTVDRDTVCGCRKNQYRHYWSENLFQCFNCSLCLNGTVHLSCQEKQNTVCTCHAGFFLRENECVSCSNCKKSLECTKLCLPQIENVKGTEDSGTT
Nature of the test: yeast display SC50.

B1: I21A (designed binder)
chain: SMEEEVEKAAKEYEKKKKEAAEKHLEKLKAKDKEAAERFLKELEEAAKEYAKDEAKTMSEEEAKRRAKKYKEKVLLSELSEEEQKEIKEAEEKLVRTILKYVEEAAK
As to B1, the “apparent Kd (screen)” value is 0.653 nM.

B2: Q84S (designed binder)
chain: B1 chain with A21I, Q84S
Consider B2, for which the “apparent Kd (screen)” value turned out to be 11.4 nM.

B3: Y101A (designed binder)
chain: B1 chain with A21I, Y101A
For B3, the “apparent Kd (screen)” value came out at 0.405 nM.

B4: S1N (designed binder)
chain: B1 chain with S1N, A21I
B4: the “apparent Kd (screen)” value came to 0.593 nM.

B5: E92A (designed binder)
chain: B1 chain with A21I, E92A
For B5, the “apparent Kd (screen)” value came out at 12.5 nM.

B6: K93M (designed binder)
chain: B1 chain with A21I, K93M
B6: the “apparent Kd (screen)” value came to 0.718 nM.

B7: E22L (designed binder)
chain: B1 chain with A21I, E22L
With B7, the “apparent Kd (screen)” value is 0.869 nM.

B8: M2P (designed binder)
chain: B1 chain with M2P, A21I
As for B8, the “apparent Kd (screen)” value turned out to be 0.49 nM.

B9: E3M (designed binder)
chain: B1 chain with E3M, A21I
As to B9, the “apparent Kd (screen)” value is 10.4 nM.

B10: V6F (designed binder)
chain: B1 chain with V6F, A21I
As to B10, the “apparent Kd (screen)” value turned out to be 2.25 nM.

B11: A35C (designed binder)
chain: B1 chain with A21I, A35C
On to B11, for which the “apparent Kd (screen)” value came out at 1.69 nM.

B12: K18H (designed binder)
chain: B1 chain with K18H, A21I
Consider B12, for which the “apparent Kd (screen)” value came to 1.27 nM.

B13: K88N (designed binder)
chain: B1 chain with A21I, K88N
As for B13, the “apparent Kd (screen)” value worked out at 0.446 nM.

B14: S77G (designed binder)
chain: B1 chain with A21I, S77G
Regarding B14, the “apparent Kd (screen)” value stood at 2.48 nM.

B15: E45S (designed binder)
chain: B1 chain with A21I, E45S
Consider B15, for which the “apparent Kd (screen)” value came to 2.73 nM.

B16: V102I (designed binder)
chain: B1 chain with A21I, V102I
Turning to B16, the “apparent Kd (screen)” value worked out at 2.73 nM.

B17: K71H (designed binder)
chain: B1 chain with A21I, K71H
Regarding B17, the “apparent Kd (screen)” value came out at 0.593 nM.

B18: A46T (designed binder)
chain: B1 chain with A21I, A46T
On to B18, for which the “apparent Kd (screen)” value worked out at 2.73 nM.

B19: S80W (designed binder)
chain: B1 chain with A21I, S80W
Turning to B19, the “apparent Kd (screen)” value was determined as 3 nM.

B20: S59W (designed binder)
chain: B1 chain with A21I, S59W
Regarding B20, the “apparent Kd (screen)” value came to 13.8 nM.

B21: K11Y (designed binder)
chain: B1 chain with K11Y, A21I
As to B21, the “apparent Kd (screen)” value amounted to 0.49 nM.

B22: E82F (designed binder)
chain: B1 chain with A21I, E82F
For B22, the “apparent Kd (screen)” value worked out at 0.539 nM.

B23: E42N (designed binder)
chain: B1 chain with A21I, E42N
With B23, the “apparent Kd (screen)” value was determined as 7.07 nM.

B24: L94H (designed binder)
chain: B1 chain with A21I, L94H
Consider B24, for which the “apparent Kd (screen)” value was 0.446 nM.

B25: E81Q (designed binder)
chain: B1 chain with A21I, E81Q
As for B25, the “apparent Kd (screen)” value came to 0.593 nM.

B26: K100N (designed binder)
chain: B1 chain with A21I, K100N
Regarding B26, the “apparent Kd (screen)” value is 0.956 nM.

B27: K33H (designed binder)
chain: B1 chain with A21I, K33H
B27: the “apparent Kd (screen)” value was determined as 0.446 nM.

B28: L79S (designed binder)
chain: B1 chain with A21I, L79S
B28: the “apparent Kd (screen)” value was 2.73 nM.

B29: K93P (designed binder)
chain: B1 chain with A21I, K93P
In the case of B29, the “apparent Kd (screen)” value was 8.56 nM.

B30: K68R (designed binder)
chain: B1 chain with A21I, K68R
On to B30, for which the “apparent Kd (screen)” value was 0.718 nM.

B31: E19Y (designed binder)
chain: B1 chain with E19Y, A21I
For B31, the “apparent Kd (screen)” value turned out to be 1.54 nM.

B32: K41M (designed binder)
chain: B1 chain with A21I, K41M
As to B32, the “apparent Kd (screen)” value came to 0.446 nM.

B33: K100I (designed binder)
chain: B1 chain with A21I, K100I
In the case of B33, the “apparent Kd (screen)” value worked out at 1.4 nM.

B34: E12G (designed binder)
chain: B1 chain with E12G, A21I
As for B34, the “apparent Kd (screen)” value turned out to be 0.49 nM.

B35: K68T (designed binder)
chain: B1 chain with A21I, K68T
For the molecule B35, the “apparent Kd (screen)” value came out at 1.4 nM.

B36: H24Q (designed binder)
chain: B1 chain with A21I, H24Q
Regarding B36, the “apparent Kd (screen)” value was 0.79 nM.

B37: E104P (designed binder)
chain: B1 chain with A21I, E104P
With B37, the “apparent Kd (screen)” value was found to be 0.446 nM.

B38: T57Y (designed binder)
chain: B1 chain with A21I, T57Y
B38: the “apparent Kd (screen)” value is 0.0802 nM.

B39: E42Q (designed binder)
chain: B1 chain with A21I, E42Q
Turning to B39, the “apparent Kd (screen)” value was 9.41 nM.

B40: K52C (designed binder)
chain: B1 chain with A21I, K52C
For the molecule B40, the “apparent Kd (screen)” value stood at 1.27 nM.

B41: A47S (designed binder)
chain: B1 chain with A21I, A47S
Regarding B41, the “apparent Kd (screen)” value amounted to 2.05 nM.

B42: M2K (designed binder)
chain: B1 chain with M2K, A21I
As to B42, the “apparent Kd (screen)” value is 0.49 nM.

B43: K27T (designed binder)
chain: B1 chain with A21I, K27T
Turning to B43, the “apparent Kd (screen)” value amounted to 0.956 nM.

B44: K16P (designed binder)
chain: B1 chain with K16P, A21I
B44: the “apparent Kd (screen)” value stood at 18.3 nM.

B45: K64N (designed binder)
chain: B1 chain with A21I, K64N
Consider B45, for which the “apparent Kd (screen)” value was determined as 0.653 nM.

B46: K93S (designed binder)
chain: B1 chain with A21I, K93S
Turning to B46, the “apparent Kd (screen)” value came to 0.653 nM.

B47: K68A (designed binder)
chain: B1 chain with A21I, K68A
As to B47, the “apparent Kd (screen)” value was found to be 1.05 nM.

B48: L79M (designed binder)
chain: B1 chain with A21I, L79M
Take B48: the “apparent Kd (screen)” value is 0.79 nM.

B49: L28H (designed binder)
chain: B1 chain with A21I, L28H
As for B49, the “apparent Kd (screen)” value worked out at 0.79 nM.

B50: S77N (designed binder)
chain: B1 chain with A21I, S77N
As for B50, the “apparent Kd (screen)” value worked out at 3 nM.

B51: A30P (designed binder)
chain: B1 chain with A21I, A30P
As to B51, the “apparent Kd (screen)” value turned out to be 11.4 nM.

B52: K69C (designed binder)
chain: B1 chain with A21I, K69C
For the molecule B52, the “apparent Kd (screen)” value was determined as 2.48 nM.

B53: E72S (designed binder)
chain: B1 chain with A21I, E72S
For B53, the “apparent Kd (screen)” value turned out to be 2.73 nM.

B54: K33A (designed binder)
chain: B1 chain with A21I, K33A
In the case of B54, the “apparent Kd (screen)” value is 0.49 nM.

B55: A10F (designed binder)
chain: B1 chain with A10F, A21I
Regarding B55, the “apparent Kd (screen)” value came to 10.4 nM.
